Results published in US20250011363A1, “OPTIMIZED SHORTENED PEPTIDE THAT BINDS TO ACETYLCHOLINE RECEPTOR, AND USE THEREOF” (SKINMED CO., LTD., priority 2021, published 2025).

target: acetylcholine receptor; test: SPR, peptide at 10 µM on acetylcholine receptor

In order of rising Binding affinity (RU):
1. RWVCK [5mer-395]  50 RU
2. RWFQR [5mer-94]  50 RU
3. RGVYR [5mer-385]  51 RU
4. KRQLR [5mer-97]  52 RU
5. RRITK [5mer-397]  52 RU
6. RRILR [5mer-387]  52 RU
7. KVVCR [5mer-396]  53 RU
8. RVLYR [5mer-96]  55 RU
9. RQIQK [5mer-91]  55 RU
10. RQITR [5mer-87]  55 RU
11. RRLCK [5mer-86]  55 RU
12. RWQRK [5mer-383]  56 RU
13. KWRRR [5mer-389]  57 RU
14. RLRQR [5mer-382]  62 RU
15. RVRLK [5mer-92]  62 RU
16. KGFSR [5mer-83]  64 RU
17. KRFCR [5mer-390]  64 RU
18. RRLSK [5mer-378]  65 RU
19. KGQLR [5mer-376]  65 RU
20. KRRRK [5mer-394]  66 RU
21. RVVRR [5mer-84]  67 RU
22. KGFYK [5mer-377]  67 RU
23. KWYCK [5mer-98]  68 RU
24. RGRRK [5mer-95]  68 RU
25. KGQCR [5mer-398]  71 RU
26. KVFRR [5mer-391]  72 RU
27. RRVQK [5mer-88]  73 RU
28. KWRQK [5mer-77]  74 RU
29. KGVLK [5mer-85]  74 RU
30. KSLQR [5mer-393]  75 RU
31. KSLRK [5mer-384]  75 RU
32. KRITK [5mer-89]  77 RU
33. RSFLK [5mer-386]  78 RU
34. KLFCK [5mer-388]  78 RU
35. KWVYR [5mer-93]  79 RU
36. KVICK [5mer-78]  79 RU
37. KSRLR [5mer-379]  79 RU
38. RGIYR [5mer-81]  79 RU
39. RWFLR [5mer-79]  82 RU
40. KRYLK [5mer-380]  82 RU
41. KSRTR [5mer-80]  83 RU
42. RQRYK [5mer-82]  84 RU
43. RWYTK [5mer-90]  86 RU
44. KGQRR [5mer-381]  87 RU
45. RSRLR [5mer-392]  87 RU

target: acetylcholine receptor; test: SPR, AchR immobilized on CM5 chip, peptide at 10 µM

In order of falling Binding affinity (RU):
1. RLRYR [5mer-402]  86 RU
2. KSVLK [5mer-111]  85 RU
3. KVYLR [5mer-406]  84 RU
4. KGYLK [5mer-404]  83 RU
5. KRQRR [5mer-114]  82 RU
6. RGFSK [5mer-102]  82 RU
7. RGRSR [5mer-412]  81 RU
8. KVIRK [5mer-100]  80 RU
9. KRLRK [5mer-113]  79 RU
10. KLLQR [5mer-106]  78 RU
11. KVFLR [5mer-415]  77 RU
12. KWQLK [5mer-108]  77 RU
13. RRFLR [5mer-410]  76 RU
14. KRRLK [5mer-110]  76 RU
15. RWLLR [5mer-115]  75 RU
16. RVVLK [5mer-104]  74 RU
17. KVFRK [5mer-408]  74 RU
18. KVRCK [5mer-414]  71 RU
19. RWRCK [5mer-400]  70 RU
20. KSYTK [5mer-405]  68 RU
21. RLQCR [5mer-109]  68 RU
22. KGRLR [5mer-411]  66 RU
23. RRLYK [5mer-403]  64 RU
24. KWIQR [5mer-399]  62 RU
25. RWFLK [5mer-103]  62 RU
26. KQIYK [5mer-409]  62 RU
27. KRYYR [5mer-112]  58 RU
28. RQIYK [5mer-407]  58 RU
29. RWICK [5mer-99]  58 RU
30. RWVSR [5mer-107]  56 RU
31. RWLTR [5mer-413]  56 RU
32. RQQYR [5mer-101]  55 RU
33. RGVLR [5mer-401]  52 RU
34. RGQQR [5mer-105]  50 RU
